Patent US20190309079A1 (Regeneron, published 2019)

T1: full length human LEPR (amino acids 1-1165 of P48357, Isoform B) on cells (human, UniProt P48357 22-1165)
T1 sequence: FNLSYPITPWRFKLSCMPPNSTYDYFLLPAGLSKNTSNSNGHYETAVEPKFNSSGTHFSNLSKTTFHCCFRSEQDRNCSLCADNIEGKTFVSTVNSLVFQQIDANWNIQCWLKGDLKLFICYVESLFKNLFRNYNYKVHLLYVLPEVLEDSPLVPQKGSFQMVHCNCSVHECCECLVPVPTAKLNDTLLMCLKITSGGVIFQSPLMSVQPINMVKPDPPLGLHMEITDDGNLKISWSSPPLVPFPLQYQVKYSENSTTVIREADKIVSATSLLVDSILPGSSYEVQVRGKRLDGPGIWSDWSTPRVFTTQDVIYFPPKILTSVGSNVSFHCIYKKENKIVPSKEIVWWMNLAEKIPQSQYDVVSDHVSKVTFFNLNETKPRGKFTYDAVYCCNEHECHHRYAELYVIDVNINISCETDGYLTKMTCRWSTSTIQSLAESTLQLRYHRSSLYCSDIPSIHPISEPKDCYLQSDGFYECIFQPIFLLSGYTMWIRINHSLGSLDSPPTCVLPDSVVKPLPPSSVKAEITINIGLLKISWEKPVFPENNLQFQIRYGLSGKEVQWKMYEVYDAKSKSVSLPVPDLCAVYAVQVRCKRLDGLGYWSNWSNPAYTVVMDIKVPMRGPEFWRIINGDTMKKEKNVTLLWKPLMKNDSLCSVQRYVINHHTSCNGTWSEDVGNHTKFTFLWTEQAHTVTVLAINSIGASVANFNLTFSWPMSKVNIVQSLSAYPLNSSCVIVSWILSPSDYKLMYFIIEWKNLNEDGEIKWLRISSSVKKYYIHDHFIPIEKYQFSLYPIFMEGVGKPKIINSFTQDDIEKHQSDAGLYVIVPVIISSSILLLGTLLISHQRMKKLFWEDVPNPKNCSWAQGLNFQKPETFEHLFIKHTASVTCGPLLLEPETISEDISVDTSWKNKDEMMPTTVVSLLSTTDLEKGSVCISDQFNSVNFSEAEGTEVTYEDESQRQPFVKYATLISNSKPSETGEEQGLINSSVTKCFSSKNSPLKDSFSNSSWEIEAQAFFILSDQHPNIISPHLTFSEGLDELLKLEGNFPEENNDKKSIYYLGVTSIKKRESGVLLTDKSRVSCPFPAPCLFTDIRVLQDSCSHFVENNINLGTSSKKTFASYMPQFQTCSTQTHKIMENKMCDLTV

T2: extracellular domain of human LEPR (amino acids 22-839 of P48357, Isoform B) with N-terminal myc-myc tag, … (human, UniProt P48357 22-839, GPI anchor at the C-terminus)
T2 construct: also called HEK293/Mycx2-hLepR(Ecto)-GPI anchored cells
T2 sequence: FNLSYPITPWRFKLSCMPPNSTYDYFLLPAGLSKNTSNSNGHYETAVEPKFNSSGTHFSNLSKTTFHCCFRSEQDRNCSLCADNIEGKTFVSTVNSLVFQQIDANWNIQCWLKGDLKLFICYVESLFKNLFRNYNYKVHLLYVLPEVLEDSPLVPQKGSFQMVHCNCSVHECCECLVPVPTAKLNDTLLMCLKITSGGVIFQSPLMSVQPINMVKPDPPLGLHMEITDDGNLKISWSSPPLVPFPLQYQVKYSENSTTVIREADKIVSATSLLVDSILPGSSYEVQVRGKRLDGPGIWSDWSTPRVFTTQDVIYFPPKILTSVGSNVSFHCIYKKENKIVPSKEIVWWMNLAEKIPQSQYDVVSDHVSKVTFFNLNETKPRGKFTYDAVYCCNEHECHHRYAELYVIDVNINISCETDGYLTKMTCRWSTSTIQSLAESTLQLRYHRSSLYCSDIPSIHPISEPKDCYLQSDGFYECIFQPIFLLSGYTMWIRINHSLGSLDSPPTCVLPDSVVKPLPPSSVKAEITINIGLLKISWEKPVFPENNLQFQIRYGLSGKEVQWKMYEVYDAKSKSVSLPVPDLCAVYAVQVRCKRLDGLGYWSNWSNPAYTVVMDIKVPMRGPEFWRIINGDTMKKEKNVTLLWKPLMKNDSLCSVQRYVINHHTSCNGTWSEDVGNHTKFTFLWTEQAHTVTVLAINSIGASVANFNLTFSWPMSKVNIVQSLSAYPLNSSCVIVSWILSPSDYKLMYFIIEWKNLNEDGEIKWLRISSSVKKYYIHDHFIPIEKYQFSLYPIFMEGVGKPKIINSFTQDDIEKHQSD


Tests used:
[1] = target: T1, full length human LEPR (amino acids …); assay: cell-based or functional assay
[2] = target: T3, extracellular domain portion of LEPR protein expressed with a C-terminal human Fc tag (hLEPR.hFc) (human); assay: blocking ELISA, hLeptin coated
T3 construct: also called dimeric human LEPR
Experimental: These antibody-protein or protein-protein complexes were then incubated for 1.5 hour at room temperature (RT). […] Samples were developed with a TMB solution (BD Biosciences, #555214; substrate A and B mixed at 1:1 ratio as per manufacturer's instructions) to produce a colorimetric reaction and then neutralized with 1M sulfuric acid before measuring absorbance at 450 nm on a Victor X5 plate reader.
Data analysis was performed using a sigmoidal dose-response model within Prism™ software (GraphPad).

[3] = target: T2, extracellular domain of human LEPR …; assay: FACS, 10 nM Ab, HEK293/hLEPR-GPI, no added Leptin
Experimental: For the FACS analysis, HEK293 parental cells and HEK293/hLEPR-GPI cells were dissociated and plated onto 96-well v-bottom plates at 5×10⁵ cells/well in PBS containing 2% FBS (FACS buffer). […] Cells were subsequently fixed using BD CytoFix™ (Becton Dickinson, #554655), filtered, and analyzed on a HyperCyt Flow Cytometer (Beckman Coulter). Unstained and secondary antibody alone controls were also tested for all cell lines. The results were analyzed using ForeCyt (IntelliCyt) and FlowJo version 10 software to determine the geometric means of fluorescence for viable cells. The geometric mean of fluorescence for each sample was then normalized to the geometric mean of unstained cells to obtain relative binding per condition referred to as “binding ratios”, and these binding ratios were recorded for each antibody tested.

% activation; IMR-32/LEPR with 200 pM human Leptin [1] [%] | % activation; IMR-32/LEPR without human Leptin [1] [%] | EC50 (M); IMR-32/LEPR with 200 pM human Leptin [1] [M] | EC50 (M); IMR-32/LEPR without human Leptin (STAT3-Luc reporter) [1] [M] | 500 nM Ab Blocking of 10 nM hLEPR.hFc Binding to hLeptin (% blockade) [2] [%] | Binding Ratio (normalized to unstained) [3] [fold] | Binder
87 | 5 | 5.23e-10 | 1.53e-10 | 16 | 1840 | H4H18417P2 (antibody, V domains shown) VH: QVQLVESGGGVVQPGRSLRLSCAASGFTFSTYGMHWVRQAPGKGLEWVSVISYDESNKYYADSVKGRFTISRDNSKNALYLQMNSLRNEDTAVYYCARDRPFGLVTGWFDPWGQGTLVTVSS VL: not shown
97 | 5 | 4.1e-10 | 1.19e-08 | 28 | 2020 | H4H18445P2 (antibody, human IgG4, V domains shown, human IgG4 Fc) VH: QVQLQESGPGLVKPSQTLSLTCTVSGGSISSGGDYWSWIRQLPGKGLEWIGYIYYSGSAYYNPSLKSRGTISIDTSKNQFSLKLTSVTAADTAVYFCVKLRFLEWFLGGWFGPWGQGTLVTVSS VL: not shown
88 | 68 | 5.19e-11 | 6.19e-11 | -7 | 2420 | H4H16650P2 (antibody, V domains shown) VH: QVQLVESGGGVVQPGKSLRLSCVASGFTFSSDAMYWVRQAPGKGLEWVAVIYYDGNYQYYEDSVKGRFTISRDNSQNTLDLQMNSLRVDDTAVYFCARLNWDYWYLDLWGRGTLVTVSS VL: not shown
76 | 68 | 1.91e-10 | 1.87e-10 | 9 | – | H4H17319P2 (antibody, V domains shown, also called REGN4461) VH: QVQLVESGGSVVQPGRSLRLSCAASGFTFSTYAMYWVRQTPGKGLEWVAVLYSDGSNKYYIDSVKGRFTISRDTSTNTLYLQMSSLRADDSALYYCARLNWDYWYFDLWGRGTLVTVSS VL: not shown
66 | 13 | 5.23e-11 | 2.12e-10 | 8 | 3370 | H4H18449P2 (antibody, human IgG4, V domains shown, human IgG4 Fc) VH: EVQLVESGGGLVQPGGSLRLSCVASGFTFNKYDMHWVRQTTGKGLEWVSGIDTDGDTYYPGSVKGRFTISRENAENSLYLQMNGLRVGDTAVYYCARWPWSGFYGAFDIWGQGTMVTVSS VL: not shown
76 | 5 | 2.02e-11 | 1.49e-09 | 15 | 1490 | H4H18438P2 (antibody, V domains shown) VH: QVQLVESGGGVVQPGRSLRLSCAASGFSFNTYGMHWVRQAPGKGLEWVTIIWYDGSIKYYADSVKGRFTISRDNSKNTLYLQMNSLRAEDTAVYYCARGGYSGYLYFDYWGQGTLVTVSS VL: not shown
88 | 65 | 7.37e-11 | 8.62e-11 | 7 | 2060 | H4H16679P2 (antibody, V domains shown) VH: QVQLVESGGGVVQPGRSLRLSCTASGFTFSSYAMYWVRQAPGKGLEWVSVIYYDGSYKYYADSVKGRFTISRDNSKNTLYLQMDSLRAEDTAVYYCASYNWNYWYFDFWGRGTLVTVSS VL: not shown
76 | 66 | 2.57e-10 | 2.07e-10 | 6 | – | H4H17321P2 (antibody, V domains shown) VH: QVQLVESGGGVVQPGRSLRLSCEASGFSSSDNAMYWVRQAPGKGLEWVSVIYHDGSYKYYEDSVKGRFTIARDNSKNTLYLQMNSLRAEDTAVYYCARYNWNHWYFDVWGRGTLVTVSS VL: not shown
68 | 6 | 3.42e-11 | 3.73e-10 | -5 | – | H4H18446P2 (antibody, human IgG4, V domains shown, human IgG4 Fc) VH: EVQLVESGGGLVQPGGSLRLSCAASGFTFSNYGMTWVRQAPGKGLEWVSAITGGGGSTYYSNSVKGRFTISRDNSKNTVYLRMNSVRAEDTAVYYCAKYKWNFVDDWGQGTTVTVSS VL: not shown
